The values that follow come from patent US20110162109A1 (BASF PLANT SCIENCE, published 2011).

B1: HUB1 (Histone Monoubiquitination 1), At2g44950, Arabidopsis thaliana (enzyme)
chain: MASTGEPDRKRRHFSSISPSEAAAAVKKQPFFWPSSEDKLDTAVLQFQNLKLSQKLEAQQVECSILEDKLSQIKEKQLPYNSSLKTVHKSWEKLTASVESCSVRVSDSSSGAHRFVNKEDGSSPAVKNDFINRLLETGATESSSSNICSNQMEENGVNTSSQMTQTLYNLVAATEDLRCLKDELYPTVLRTNLGKDLCGQLALSELESEIKSFRGDLDDVLVKFKSLSRELQSHRDADAKVRVDLKRIRGELEDEVVELQQCNGDLSALRAERDATAGAFFPVLSLGNKLATSDRERDKQRDLQDMETVLKELTVLASGRLQQLKNLHEERTKMLGKMSNLQNKSKSVRCISSSQACLSLKDQLEKSKEAVFQYMALLEKLQVEKDSIVWKEREINIKNELGDVSRKTSAVTDSRMASLDSEIQKQLDEKMRIKTRLGNISRERGRKEIFADMKALISSFPEEMSSMRSQLNNYKETAGGIHSLRADVQSLSGVLCRKTKEYEALQLRSADYASQLGDLNATVCDLKNSHEELKLFLDMYKRESTDARDIAEAKEQEYRAWAHVQSLKSSLDEQNLELRVKAANEAEAVSQQMLAAAEAEIADLRQKMDDCKRDVAKHSDILKSKHEEHGTYLSEIQTIGSAYEDIVPQNQRLLLQVTERDDYNIKLFLEGITSRQMQDTLLIDKYIMDKDIQQGSAYASFLSKKSSRIEDQLRFCTDQFQKLAEDKYQKSVSLENLQKKRADIGNGLEQARSRLEESHSKVEQSRLDYGALELELEIERFNRRRIEEEMEIAKKKVSRLRSLIEGSSAIQKLRQELSEFKEILKCKACNDRPKEVVITKCYHLFCNPCVQKLTGTRQKKCPTCSASFGPNDIKPIYI
notes: Full length HUB1; In the TAP experiments N-terminally fused to the TAP tag or the GS-TAP tag; in yeast two-hybrid fused to AD (pDEST22) or BD (pDEST32); all these constructs are written under this one entry; also called HUB1fl; full length HUB1

The target of data set [1] is UBC2, At2g02760 (Arabidopsis thaliana) (UniProt P42745). Nature of the data set: GS-TAP purification + MALDI-TOF-TOF MS, bait UBC2 (third block); expectance is the MS identification score.
Data set [2] deals with Spen like protein, At1g27750 (Arabidopsis thaliana). Nature of the data set: GS-TAP purification + MALDI-TOF-TOF MS, bait SL (a); expectance is the MS identification score.
Data set [3] shares this target. Nature of the data set: GS-TAP purification + MALDI-TOF-TOF MS, bait SL (b); expectance is the MS identification score.
Data set [4] concerns the target HUB1 (Histone Monoubiquitination 1), At2g44950, Arabidopsis thaliana (Arabidopsis thaliana) (UniProt Q8RXD6). The experiment in a line: GS-TAP purification + MALDI-TOF-TOF MS, bait HUB1 (b); expectance is the MS identification score.
In data set [5] the target is T1, HUB2, At1g55250, Arabidopsis thaliana (Arabidopsis thaliana, UniProt Q9C895 1-900).
T1 construct: As prey the endogenous protein of Arabidopsis cell culture; as bait N-terminal GS-TAP fusion; in yeast two-hybrid an AD fusion; also called AAG51572.1
T1 sequence: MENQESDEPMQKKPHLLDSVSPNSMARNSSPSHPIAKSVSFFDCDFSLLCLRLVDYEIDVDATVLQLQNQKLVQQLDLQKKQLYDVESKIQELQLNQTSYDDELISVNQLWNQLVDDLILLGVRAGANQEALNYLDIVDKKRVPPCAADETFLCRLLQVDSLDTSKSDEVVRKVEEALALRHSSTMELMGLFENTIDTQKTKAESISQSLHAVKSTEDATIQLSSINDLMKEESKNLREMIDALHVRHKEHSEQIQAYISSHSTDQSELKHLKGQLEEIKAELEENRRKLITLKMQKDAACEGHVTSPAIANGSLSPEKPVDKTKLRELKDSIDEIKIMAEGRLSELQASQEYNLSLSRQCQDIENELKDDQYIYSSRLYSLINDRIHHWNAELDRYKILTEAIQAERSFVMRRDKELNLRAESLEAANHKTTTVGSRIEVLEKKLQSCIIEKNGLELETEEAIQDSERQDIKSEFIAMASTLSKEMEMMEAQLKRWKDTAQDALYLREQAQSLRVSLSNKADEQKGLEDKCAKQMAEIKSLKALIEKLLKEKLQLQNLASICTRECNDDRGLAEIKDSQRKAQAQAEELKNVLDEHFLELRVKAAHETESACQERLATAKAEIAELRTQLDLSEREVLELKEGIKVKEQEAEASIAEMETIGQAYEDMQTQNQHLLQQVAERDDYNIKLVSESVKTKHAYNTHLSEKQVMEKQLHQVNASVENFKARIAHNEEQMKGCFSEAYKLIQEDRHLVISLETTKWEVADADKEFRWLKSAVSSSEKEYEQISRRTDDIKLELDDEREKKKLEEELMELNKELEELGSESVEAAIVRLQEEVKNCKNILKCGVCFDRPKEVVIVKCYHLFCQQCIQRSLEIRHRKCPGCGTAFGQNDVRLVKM
The experiment in a line: GS-TAP purification + MALDI-TOF-TOF MS, bait HUB2 (a); expectance is the MS identification score.

In data set [6] the target is T1, HUB2, At1g55250, Arabidopsis thaliana. The experiment in a line: GS-TAP purification + MALDI-TOF-TOF MS, bait HUB2 (b); expectance is the MS identification score.
For data set [7], the target named is HUB1 (Histone Monoubiquitination 1), At2g44950, Arabidopsis thaliana (Arabidopsis thaliana) (UniProt Q8RXD6). The experiment in a line: GS-TAP purification + MALDI-TOF-TOF MS, bait HUB1 (a′); expectance is the MS identification score.
The target is the same in data set [8]. Nature of the data set: GS-TAP purification + MALDI-TOF-TOF MS, bait HUB1 (b′); expectance is the MS identification score.
Data set [9] deals with SEUSS, At1g43850 (Arabidopsis thaliana) (UniProt Q8W234). Nature of the data set: GS-TAP purification + MALDI-TOF-TOF MS, bait SEUSS (a); expectance is the MS identification score.
Sequence of SEUSS, At1g43850 (Arabidopsis thaliana) (Q8W234 whole entry): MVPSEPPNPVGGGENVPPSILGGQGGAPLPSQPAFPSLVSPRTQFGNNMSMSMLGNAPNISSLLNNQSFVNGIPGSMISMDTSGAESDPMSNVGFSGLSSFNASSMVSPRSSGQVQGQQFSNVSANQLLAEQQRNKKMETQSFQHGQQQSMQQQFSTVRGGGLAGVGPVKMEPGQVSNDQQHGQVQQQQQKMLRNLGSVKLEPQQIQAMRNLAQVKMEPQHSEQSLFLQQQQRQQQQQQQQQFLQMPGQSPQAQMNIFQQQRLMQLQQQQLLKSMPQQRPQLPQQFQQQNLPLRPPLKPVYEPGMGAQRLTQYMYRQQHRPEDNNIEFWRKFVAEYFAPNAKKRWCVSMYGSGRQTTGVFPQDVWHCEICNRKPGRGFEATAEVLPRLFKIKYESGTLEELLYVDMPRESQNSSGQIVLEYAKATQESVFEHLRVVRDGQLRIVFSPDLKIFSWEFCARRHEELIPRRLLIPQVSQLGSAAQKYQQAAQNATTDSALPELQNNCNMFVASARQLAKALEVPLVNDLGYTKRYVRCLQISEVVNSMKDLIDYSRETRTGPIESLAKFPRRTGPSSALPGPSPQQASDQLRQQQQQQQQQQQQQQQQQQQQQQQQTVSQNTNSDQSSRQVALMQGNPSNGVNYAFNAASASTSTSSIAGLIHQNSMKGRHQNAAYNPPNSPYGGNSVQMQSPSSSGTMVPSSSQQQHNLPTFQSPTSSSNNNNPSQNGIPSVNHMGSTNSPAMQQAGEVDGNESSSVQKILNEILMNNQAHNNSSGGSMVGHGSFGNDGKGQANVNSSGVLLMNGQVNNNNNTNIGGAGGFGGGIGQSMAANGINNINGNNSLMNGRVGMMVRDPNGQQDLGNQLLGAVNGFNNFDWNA
Data set [10] shares this target. Nature of the data set: GS-TAP purification + MALDI-TOF-TOF MS, bait SEUSS (b); expectance is the MS identification score.
Data set [11] deals with the molecule itself. The experiment in a line: TAP with N-terminally TAP-tagged HUB1 from Arabidopsis cell culture, mass spectrometry; column Confirmed. As to the method: Because the RING proteins have their functionally important domain at the C-terminus, an N-terminal fusion was prepared instead of the traditional C-terminal fusion by cloning both full length and the point mutant form of HUB1 (HUB1pm, HUB1fl). The Arabidopsis cell cultures were transformed with the two constructs and cultivated on 10 litre scale, harvested and purified by TAP (Van Leene et al., Mol. Cell. Proteomics 6, 1226-38, 2007). The protein extracts were separated on 1-D SDS-PAGE gels and isolated from gel for protein identification by mass spectrometry (Laukens et al., Proteomics. 4, 720-7, 2004, Van Leene et al., 2007). Two cut offs were used resulting in “confirmed” and “to be confirmed” candidate interactor lists (Table I).
In the data set of confirmed interactors TAP HUB1 and HUB2 were present, […] the dimer formation between the homologues. In addition, the acetyltransferase GCN5, RNA binding proteins and a KH domain protein were identified as HUB1 interacting proteins. Most of these proteins are known to be localized in nucleus or nucleoli. GFP constructs of HUB1 have also been localized to nucleus (Liu et al., 2007). When HUB1pm was used for TAP purification no HUB2 could be identified as an interacting protein.

Data set [12] has as its target B1. Nature of the data set: yeast two-hybrid.
Data set [13] has as its target T1, HUB2, At1g55250, Arabidopsis thaliana. Nature of the data set: yeast two-hybrid.

In the case of “AtUBA1, AT2G30110 (from UniProt P93028 1-1080) (enzyme)”, the Expectance in [1] stood at 0.00082.
Turning to “AtUBA2, AT5G06460 (from UniProt P92974 1-1077) (enzyme)”, in [1], the Expectance was 0.00026.
Take KH domain protein, At1g51580: the Expectance in data set [2] was found to be 0.00054; in data set [3] it was 2.6e-12; in [4], 1.6e-08; in [5] it was 1.3e-08; in data set [6] it was 1.6e-09; in [7], 2.1e-09. The Expectance in data set [8] was 3.3e-09.
“LUH, At2G32700 (from UniProt O48847 1-787)”: the values for the Expectance in [9] and in [10] were 3.3e-99 and 2.1e-82, respectively.
Consider Spen like protein, At1g27750, for which the Expectance in [5] is 0.00097; in data set [6], 1e-24; in [7] it was 6.5e-16; in data set [8], 0.024.
For the molecule B1, the “monoubiquitination of histone H2B in the in vitro ubiquitination assay (protein gel blot)” value with histone H2B is reported as “shift of H2B by 10 kDa”. Also, the binding result in data set [11] is “binds”.

B2: UBC1 (E2 conjugating enzyme, Arabidopsis thaliana) (enzyme, UniProt P25865 1-152, looked up)
chain: MSTPARKRLMRDFKRLQQDPPAGISGAPQDNNIMLWNAVIFGPDDTPWDGGTFKLSLQFSEDYPNKPPTVRFVSRMFHPNIYADGSICLDILQNQWSPIYDVAAILTSIQSLLCDPNPNSPANSEAARMYSESKREYNRRVRDVVEQSWTAD
notes: Yeast two-hybrid fusion
As for B2, the binding result in [12] and in data set [13] was “no binding” throughout.

B3: UBC2, At2g02760 (enzyme, Arabidopsis thaliana, UniProt P42745 1-152, looked up)
chain: MSTPARKRLMRDFKRLQQDPPAGISGAPQDNNIMLWNAVIFGPDDTPWDGGTFKLSLQFSEDYPNKPPTVRFVSRMFHPNIYADGSICLDILQNQWSPIYDVAAILTSIQSLLCDPNPNSPANSEAARMFSESKREYNRRVREVVEQSWTAD
notes: As bait N-terminal GS-TAP fusion; fusion protein in yeast two-hybrid; also called E2 conjugating enzyme UBC2
B3: the binding result in data set [12] and in data set [13] was “no binding” each time.

B4: UBC3 (E2 conjugating enzyme, Arabidopsis thaliana) (enzyme, UniProt P42746 1-150, looked up)
chain: MTTPAKKRLMWDFKRLQKDPPVGISGAPQDNNIMHWNALIFGPEDTPWDGGTFKLTLHFTEDYPNKPPIVRFVSRMFHPNIYADGSICLDILQNQWSPIYDVAAVLTSIQSLLCDPNPDSPANAEAARLFSENKREYNRKVIEIVEQSYV
notes: Yeast two-hybrid fusion
With B4, the binding result in data set [12] and in data set [13] was “no binding” throughout.
